Assay [1] deals with T1, complement component C3 (human, UniProt P01024 23-1663, limits assumed). In words: cell-based or functional assay.
The target in assay [2] is T1, complement component C3. Nature of the assay: cell-based or functional assay. The source holds these as a separate data set.
In assay [3] the target is T1, complement component C3. Nature of the assay: cell-based or functional assay. This is another data set of the same source.
Assay [4] concerns the target T1, complement component C3. In words: ITC; relative to the row 'Wild-type'. As to the method:
Isothermal titration calorimetry experiments were performed using the Microcal VP-ITC calorimeter (Microcal Inc, Northampton, Mass.). Protein concentrations of 3.5-5 μM and peptide concentrations of 80-200 μM were used for these experiments. All titrations were performed in PBS (10 mM phosphate buffer with 150 mM NaCl, pH 7.4). In each experiment, the target protein, C3, was loaded into the cell, and peptide was loaded into the syringe. All experiments were performed at 25° C. and for each experiment, 2-μl peptide injections were made into the cell containing the protein. In each experiment, the raw isotherms were corrected for the heats of dilution by subtracting the isotherms representing peptide injections into the buffer. The resulting isotherms were fit to various models within the Origin 7.0 software, and the model that achieved the lowest chi square value was deemed to be appropriate for the respective dataset. Binding affinity and entropy values were plotted against log P values.
The calorimetric data obtained for the interaction of all the peptides with C3 fit to a one set of sites model with stoichiometry close to 1 (FIG. 4). […] As per the correlation, binding affinity increases with an increase in the hydrophobicity of the analog incorporated at position 4. This observation is consistent with the correlation shown between log P and the inhibitory constants.
A general note: Isothermal titration calorimetry measures the heat released or taken up as one component is titrated into another.

Where two headings read alike, the source gives them in different places. Bridges are numbered along the chain shown (N, C = ends). [ ]: non-standard residue; d: D form. Trp(1-Me) = Cn1cc(C[C@H](N)C(=O)O)c2ccccc21; 2Nal = N[C@@H](Cc1ccc2ccccc2c1)C(=O)O

T1 sequence (P01024 23-1663 limits assumed): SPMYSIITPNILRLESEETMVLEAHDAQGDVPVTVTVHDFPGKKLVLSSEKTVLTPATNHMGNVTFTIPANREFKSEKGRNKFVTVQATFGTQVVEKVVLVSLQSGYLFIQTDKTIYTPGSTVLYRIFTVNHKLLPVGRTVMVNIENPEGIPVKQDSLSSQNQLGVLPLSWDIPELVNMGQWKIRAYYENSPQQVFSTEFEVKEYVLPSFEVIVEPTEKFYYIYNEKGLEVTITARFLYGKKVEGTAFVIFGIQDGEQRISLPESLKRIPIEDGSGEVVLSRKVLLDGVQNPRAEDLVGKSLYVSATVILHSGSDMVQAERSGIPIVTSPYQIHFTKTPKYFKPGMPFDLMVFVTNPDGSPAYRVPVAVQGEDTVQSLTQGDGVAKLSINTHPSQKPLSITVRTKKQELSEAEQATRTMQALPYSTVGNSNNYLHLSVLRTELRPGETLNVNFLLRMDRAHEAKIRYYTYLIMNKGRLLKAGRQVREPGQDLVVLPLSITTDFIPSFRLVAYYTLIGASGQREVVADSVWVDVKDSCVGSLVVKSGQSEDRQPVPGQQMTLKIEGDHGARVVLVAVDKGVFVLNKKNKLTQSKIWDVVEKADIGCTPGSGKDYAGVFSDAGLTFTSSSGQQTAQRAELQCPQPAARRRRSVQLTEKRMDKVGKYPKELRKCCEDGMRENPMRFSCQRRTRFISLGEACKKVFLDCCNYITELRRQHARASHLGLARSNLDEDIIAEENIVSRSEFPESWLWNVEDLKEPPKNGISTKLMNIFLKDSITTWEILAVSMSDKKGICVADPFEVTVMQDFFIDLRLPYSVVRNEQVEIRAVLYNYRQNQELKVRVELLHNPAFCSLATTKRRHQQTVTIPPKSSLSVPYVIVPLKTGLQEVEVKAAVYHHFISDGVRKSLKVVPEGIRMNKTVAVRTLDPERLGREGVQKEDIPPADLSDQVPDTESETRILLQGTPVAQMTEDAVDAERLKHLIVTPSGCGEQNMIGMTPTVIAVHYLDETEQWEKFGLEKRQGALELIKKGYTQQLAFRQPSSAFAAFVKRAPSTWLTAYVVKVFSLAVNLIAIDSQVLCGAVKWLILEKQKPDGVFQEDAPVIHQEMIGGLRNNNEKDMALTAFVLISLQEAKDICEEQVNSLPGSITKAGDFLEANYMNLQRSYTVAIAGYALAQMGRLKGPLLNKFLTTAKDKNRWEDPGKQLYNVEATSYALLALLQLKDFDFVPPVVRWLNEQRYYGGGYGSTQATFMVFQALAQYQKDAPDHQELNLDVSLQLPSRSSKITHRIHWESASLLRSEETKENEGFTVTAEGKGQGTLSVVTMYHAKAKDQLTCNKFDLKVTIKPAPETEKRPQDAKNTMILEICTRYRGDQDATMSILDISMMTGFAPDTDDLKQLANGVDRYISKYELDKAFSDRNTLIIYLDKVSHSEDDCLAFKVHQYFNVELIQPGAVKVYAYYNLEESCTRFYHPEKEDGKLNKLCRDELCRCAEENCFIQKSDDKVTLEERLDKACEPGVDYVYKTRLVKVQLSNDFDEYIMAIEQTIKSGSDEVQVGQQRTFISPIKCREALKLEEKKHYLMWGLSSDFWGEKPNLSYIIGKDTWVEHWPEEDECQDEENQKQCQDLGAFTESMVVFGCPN

In assay [1], Ac-V4W/7(5-methoxy W)/H9A (peptide) came in with an IC50, complement inhibition (C3b/iC3b deposition ELISA, human plasma) of 460 nM and a Relative activity (to compstatin, SEQ ID NO: 1) of 0.5 fold.
Regarding “G(-1)/V4(5-OH-W)/W7(5-OH-W)/H9A/N14 (peptide)”, in assay [1], the IC50, complement inhibition (C3b/iC3b deposition ELISA, human plasma) came out at 33000 nM; the Relative activity (to compstatin, SEQ ID NO: 1) turned out to be 1.6 fold; the loss of complement inhibitory activity relative to Ac-V4W/H9A was 27.5 fold.
For G(-1)/V4(5fW)/W7(5fW)/H9A/N14 (peptide), in assay [1], the Activity over compstatin was determined as 112 fold; the IC50, complement inhibition (C3b/iC3b deposition ELISA, human plasma) stood at 480 nM; the Relative activity (to compstatin, SEQ ID NO: 1) came to 112 fold; the complement inhibitory activity relative to Ac-V4W/H9A was 2.5 fold.
In assay [1], G(-1)/V4(6fW)/W7(6fW)/H9A/N14 (peptide) showed an Activity over compstatin of 126 fold; an IC50, complement inhibition (C3b/iC3b deposition ELISA, human plasma) of 430 nM; a Relative activity (to compstatin, SEQ ID NO: 1) of 126 fold; a complement inhibitory activity relative to Ac-V4W/H9A of 2.8 fold.
In assay [1], “G(-1)/V4(7-aza-W)/W7(7-aza-W)/H9A/N14 (peptide)” displayed an IC50, complement inhibition (C3b/iC3b deposition ELISA, human plasma) of 122000 nM and a Relative activity (to compstatin, SEQ ID NO: 1) of 0.44 fold.
G(-1)/V4W/H9A/N14 (peptide): in assay [1], the Activity over compstatin turned out to be 45 fold; the IC50, complement inhibition (C3b/iC3b deposition ELISA, human plasma) came out at 1200 nM; the Relative activity (to compstatin, SEQ ID NO: 1) was 45 fold.

B1: 4(1MeW)-ABP (peptide)
peptide: Ac-ICV[Trp(1-Me)]QDWGAHRCTRLIEDICLPRWGCLWEDD-NH2
modifications: disulfide 2-12, 20-26
As for B1, the “amount needed for the same complement inhibition as Ac-V4(1-methyl-W)/H9A” value in assay [2] was determined as 7 fold.

B2: Ac-V4(1-methyl-W)/H9A-K-PEG 5000 (peptide)
peptide: ICVWQDWGAHRCTK
modifications: N-terminal acetyl; 1-methyltryptophan at position 4; lysine added at the C-terminus with PEG 5000 linked to its side chain
Turning to B2, the “amount needed for the same complement inhibition as Ac-V4(1-methyl-W)/H9A” value in assay [2] worked out at 7 fold.

B3: Ac-V4(2-Nal)/H9A (peptide)
peptide: Ac-ICV[2Nal]QDWGAHRCT-NH2
modifications: disulfide 2-12
SMILES: CC[C@H](C)[C@H](NC(C)=O)C(=O)N[C@H]1CSSC[C@@H](C(=O)N[C@H](C(N)=O)[C@@H](C)O)NC(=O)[C@H](CCCNC(=N)N)NC(=O)[C@H](Cc2c[nH]cn2)NC(=O)[C@H](C)NC(=O)CNC(=O)[C@H](Cc2c[nH]c3ccccc23)NC(=O)[C@H](CC(=O)O)NC(=O)[C@H](CCC(N)=O)NC(=O)[C@H](Cc2ccc3ccccc3c2)NC(=O)[C@H](C(C)C)NC1=O
notes: also called Ac-V4(2-Nal)/W7/H9A
As for B3, in assay [3], the “IC50, complement inhibition (C3b/iC3b deposition ELISA, human plasma)” value is 545 nM. In assay [4], the “-TΔΔS” value was -3.99 kcal/mol, the ΔΔG was -0.1 kcal/mol and the ΔΔH is 3.87 kcal/mol.

The record behind these values is patent US20160096866A1 (University of Pennsylvania, published 2016).
